Data from patent US10058586B2, “Use of human small leucine zipper protein in adipocyte differentiation procedure” (Korea University Research and Business Foundation, priority 2013, dated 2018).

Columns and labels:
PPARγ2 [1] = biological target: T1, PPARγ2 (Mus musculus, UniProt P37238); test: FABP4-Luc stable C3H10T1/2 cells infected with sLZIP-expressing adenovirus and differentiated into adipocytes; assay type: cell-based; conditions: sLZIP adenovirus, differentiated into adipocytes for 4 days
T1 construct: endogenous in cells
T1 sequence (P37238 1-505): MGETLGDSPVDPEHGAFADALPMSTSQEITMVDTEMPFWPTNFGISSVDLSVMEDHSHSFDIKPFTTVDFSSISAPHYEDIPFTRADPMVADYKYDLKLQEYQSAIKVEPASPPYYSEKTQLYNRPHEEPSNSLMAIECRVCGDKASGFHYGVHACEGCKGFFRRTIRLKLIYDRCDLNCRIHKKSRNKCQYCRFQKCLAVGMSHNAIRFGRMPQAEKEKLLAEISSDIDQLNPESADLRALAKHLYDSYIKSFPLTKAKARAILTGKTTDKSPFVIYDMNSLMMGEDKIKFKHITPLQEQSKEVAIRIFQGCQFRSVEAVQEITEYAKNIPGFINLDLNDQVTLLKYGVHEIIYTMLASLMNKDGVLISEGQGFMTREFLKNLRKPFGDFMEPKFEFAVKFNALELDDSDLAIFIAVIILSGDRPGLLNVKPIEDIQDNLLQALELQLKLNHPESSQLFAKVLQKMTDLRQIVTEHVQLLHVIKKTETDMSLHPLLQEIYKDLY

PPARγ2 [2] = biological target: T2, PPARγ2 (Homo sapiens, UniProt P37231); test: FABP4 promoter luciferase analysis in preadipocytes from epididymal adipose tissues of sLZIP TG mice; assay type: cell-based, mouse; design: expressed in transfected cells; host or cells: primary preadipocytes from epididymal adipose tissue of human-sLZIP transgenic mice; conditions: adipocytes of sLZIP TG mice vs wild type mice, with or without 10 nM RZD
T2 sequence (P37231 1-505): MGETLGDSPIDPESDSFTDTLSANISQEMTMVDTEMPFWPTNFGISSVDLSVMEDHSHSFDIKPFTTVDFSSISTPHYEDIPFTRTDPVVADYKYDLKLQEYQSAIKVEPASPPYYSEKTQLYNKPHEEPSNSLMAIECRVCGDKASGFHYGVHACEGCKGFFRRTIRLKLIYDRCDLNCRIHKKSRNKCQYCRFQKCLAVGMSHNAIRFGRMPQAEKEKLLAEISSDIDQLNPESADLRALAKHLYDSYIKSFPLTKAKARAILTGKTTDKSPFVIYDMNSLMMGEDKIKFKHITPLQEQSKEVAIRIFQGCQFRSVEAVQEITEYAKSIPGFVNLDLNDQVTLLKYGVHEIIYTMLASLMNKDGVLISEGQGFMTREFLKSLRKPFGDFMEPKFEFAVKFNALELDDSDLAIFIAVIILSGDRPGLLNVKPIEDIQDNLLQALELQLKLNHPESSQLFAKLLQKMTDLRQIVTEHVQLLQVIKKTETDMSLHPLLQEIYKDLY
Text: In order to generate human sLZIP transgenic (TG) mice, sLZIP genes were cloned into a pCMV-flag expression vector. The sLZIP TG mice were generated by Macrogen, Inc (Seoul, Korea). Transgenic founders were mated with wild type C57BL/6 mice to produce F1 heterozygotes. F1-F4 generations were genetically screened for transgenes at an age of 2 weeks old. The following two primers were used to amplify genomic DNA in order to identify wild type and TG mice: [NT] and 5'-[NT]3.' Adipocyte differentiation is a well-regulated procedure. PPARγ2 is a major regulator of adipogenesis, is highly expressed during adipocyte differentiation, and regulates expression of genes involved in adipogenesis. An effect of sLZIP on adipogenesis in vivo was examined. For this purpose, in order to produce human sLZIP transgenic mice, sLZIP genes were cloned in a pCMV-flag expression vector. The sLZIP TG mice were produced in Macrogen, Inc (Seoul, Korea) (FIG. 8A). Preadipocytes were isolated from epididymal adipose tissues of sLZIP TG mice. […] A promoter activity was measured according to luciferase analysis (FIG. 8B). […] Total RNA was extracted from the cells, and an mRNA expression level of mouse LZIPs was measured using RT-PCR analysis. […] Total RNA was isolated from the cells, and an mRNA expression level of mouse LZIPs was measured using RT-PCR (FIG. 9C) and real-time PCR (FIG. 9D).

PGC1α = test: GST pull-down of GST-PPARγ2 with anti-PGC1α immunoblot in 293T cells; assay type: binding; conditions: 10 nM RZD for 24 hours
Method: Therefore, in order to understand a regulation mechanism of sLZIP in the PPARγ2 transcriptional activity by binding to the FABP4 promoter region, an effect of sLZIP on the interaction between PPARγ2 and HDAC3 was examined. For this purpose, 293T cells were transfected with GST-HDAC3, Myc-PPARγ2 and Flag-sLZIP, and were treated or not treated with 10 nM of RZD for 24 hours. Cell lysates were subjected to GST pull-down analysis using a glutathione 4B bead, and a protein complex was analyzed in SDS-PAGE, and then immunoblotted with anti-GST, anti-Myc and anti-Flag antibodies (FIG. 6A). GST-HDAC3, GST-PPARγ2, Myc-PPARγ2, Flag-sLZIP and Ha-UB were expressed in the 293T cells, and the cells were treated with 10 nM of RZD for 24 hours. Cell lysates were subjected to GST pull-down analysis (FIG. 6B). GST-PPARγ2 and Flag-sLZIP were expressed in the 293T cells and treated with 10 nM of RZD for 24 hours. Cell lysates were subjected to GST pull-down analysis, and a protein complex was analyzed in SDS-PAGE, and then immunoblotted with anti-PGC1α, anti-GST and anti-Flag antibodies (FIG. 6C).

B1: sLZIP: human small leucine-zipper protein, isoform of LZIP, 354 amino acids, no transmembrane domain; GenBank FJ263669, SEQ ID NO: 1 (protein, listed as Homo sapiens)
chain: MELELDAGDQDLLAFLLEESGDLGTAPDEAVRAPLDWALPLSEVPSDWEVDDLLCSLLSPPASLNILSSSNPCLVHHDHTYSLPRETVSMDLESESCRKEGTQMTPQHMEELAEQEIARLVLTDEEKSLLEKEGLILPETLPLTKTEEQILKRVRRKIRNKRSAQESRRKKKVYVGGLESRVLKYTAQNMELQNKVQLLEEQNLSLLDQLRKLQAMVIEISNKTSSSSMYSSDTRGSLPAEHGVLSRQLRALPSEDPYQLELPALQSEVPKDSTHQWLDGSDCVLQAPGNTSCLLHYMPQAPSAEPPLEWPFPDLFSEPLCRGPILPLQANLTRKGGWLPTGSPSVILQDRYSG
transcriptional activity of PPARγ2 (relative luciferase activity) (PPARγ2 [1]): the transcriptional activity of PPARγ2 decreased in adipocytes | transcriptional activity of PPARγ2 (luciferase) (PPARγ2 [2]): decreased in the adipocytes of the sLZIP TG mice more than in wild type mice | recruitment of coactivator PGC-1α to PPARγ2 (PGC1α): inhibited the complementing of a coactivator PGC-la for PPARγ2
